Data from article PMC9579014 (2022).
Numbering of substitutions follows the chain as printed.

T1: legumain AEP catalytic domain (Homo sapiens, UniProt Q99538)
T1 chain: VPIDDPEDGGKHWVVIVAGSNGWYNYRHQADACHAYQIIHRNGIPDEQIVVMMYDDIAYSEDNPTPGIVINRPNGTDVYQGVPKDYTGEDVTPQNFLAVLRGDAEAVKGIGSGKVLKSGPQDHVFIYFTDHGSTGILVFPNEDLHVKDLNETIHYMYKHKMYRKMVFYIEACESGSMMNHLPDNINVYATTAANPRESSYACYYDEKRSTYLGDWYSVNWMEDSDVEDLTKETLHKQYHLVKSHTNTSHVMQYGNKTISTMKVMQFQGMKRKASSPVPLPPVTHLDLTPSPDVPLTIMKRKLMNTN

B1: clitocypin 2 (protein)
chain: MASLEDGIYRLRAVTTHNPDPGVGGEYATVEGARRPVKAEPNTPPFFAAQAWQVTRNADGQYTIKYQGLNTPFEYGFSYDELEPNAPVIAGDPKEYILQLVPSTADVYIIRAPIQRIGVDVEVGVQGNTLVYKFFPVDGSGGDRPAWRFTRE
B2: clitocypin 2 (protein)
chain: B1 chain with A48E, A49Q, A51I
B3: macrocypin 1a (protein)
chain: GFEDGFYTILHLAEGQHPNSKIPGGMYASSKDGKDVPVTAEPLGPQSKIRWWIARDPQAGDDMYTITEFEIDNSIPGQWSRSPVETEVPVYLYDRIKAEETGYTCAWRIQPADHGADGVYHIVGNVRIGSTDWADLREEYGEPQVYMKPVPVIPNVYIPRWFILGYEE
B4: macrocypin 1a (protein)
chain: B3 chain with E70R
B5: macrocypin 1a (protein)
chain: B3 chain with E70R, R95A

Target: T1, legumain AEP catalytic domain
Assay: enzyme inhibition assay (AAN-AMC)
Settings: not given

Ki [nM]	Molecule
6690	B1
79	B2
147	B3
2.18	B4
183	B5

Target: legumain (Homo sapiens) (UniProt Q99538)
Assay: not given
Settings: cited from earlier work

Molecule	Ki [nM]
Clitocypin (from UniProt Q9P4A2)	21.5
